Assay results reported in US20230193285, “BISPECIFIC PERSONALIZED APTAMERS” (Aummune Ltd., published 2023).

Columns and labels:
[1] = target: T1, CD3 epsilon (Homo sapiens, UniProt P07766 P07766:23-126); test: SPR; conditions: tags: Fc chimera His tag, Abcam ab220590
[2] = target: CD3 epsilon (Jurkat T cells) (Homo sapiens, UniProt P07766 P07766:23-207); test: flow; binding to Jurkat cells, 1 h 37 C, PBS 1 mM MgCl2, BSA, tRNA; conditions: tags: native on Jurkat cells ATCC TIB-152; label: Cy5-CpG' complementary strand
Method: 5 x10⁴ Jurkat cells were washed and re-suspended in x1 folding buffer that contain 0.1% BSA and 0.01% tRNA. 0.1-80 nM of CS6 aptamer were labelled with CpG′-Cy5 tag (1:1 ratio) and folded (95℃ 5 min, ice 10 min, and maintenance at 4℃). Next, the DNA aptamers were mixed with the cells and incubated for 1 hr at 37℃ in V shape 96 well plate under gentle shaking conditions. After incubation, the cells were washed twice with folding buffer X1 and analysed via flow cytometry (CytoFlex).
Subsequently CS6 effective concentration 50 (EC₅₀) was evaluated. A serial dilution of -Cy5 labelled aptamer was incubated with Jurkat cells for 1 hr at 37℃ and assessed for binding via flow cytometry (FIG. 27).

[3] = target: T1, CD3 epsilon; test: HPLC size exclusion; negative control sequence; conditions: tags: Fc chimera His tag, Abcam ab220590; label: Cy5
Method: Top five candidates (CS6, CS7, CS8, CS9, and CS8c; SEQ ID NOs: 88-92, respectively) were synthesized with a 5(5′) phosphothioated CpG motif and assayed for Human CD3ε (hCD3ε) binding via the HPLC size exclusion column. In this method, the aptamers were labelled with Cy5 complementary sequence to the CpG site (Cy5-CpG’). Then, the folded-labelled candidates are incubated, each, with the CD3ε- recombinant protein or with negative control IgG1 (1 hr at 37℃ and 4℃) and analyzed by HPLC ProSEC 300S size exclusion column (Agilent) at 570 nm absorption. Upon protein binding, the aptamer-protein complex has a greater mass than a free aptamer and as a result, the retention time (RT) at the column is expected to be shorter. Inversely, in the case of non-binding aptamer, the RT in the presence of protein will be the same as in the absence of the protein. As a control, PolyT sequence was used.

[4] = target: T2, Notch2 (Homo sapiens, UniProt Q04721 Q04721:26-1677); test: thermofluorimetric analysis with SYBR green; dose-dependent, saturates between 100-200 nM protein; conditions: tags: Fc fusion, R&D Systems
Method: (§1) TFA was used to determine the binding of CTL3 with its putative target Notch2.100 nM CTL3, 1 uM SYBR green I (sigma), Fc-Notch2 human (R&D Systems) or Fc-CD160 (abcam) at 20, 40, 80, 160, and 320 nM were mixed together and SYBR green and fluorescence was measured from Temp=25° C. to Temp=95° C. at 1 degree/min using RT-PCR, in triplicates. The subsequent experiment was done with 50 nM of either CTL3 (SEQ ID NO: 3), scrambled-CTL3-A (SEQ ID NO: 86), or scrambled-CTL3-B (SEQ ID NO: 87); 1 µM SYBR green I (sigma); Fc-Notch2 human (R&D Systems), Fc-Notch2 mouse (R&D Systems) or Fc-Notch2 rat at 25, 50, 100 and 200 nM similar to the former experiment.
(§2) A Tₘ melting curve profile was generated by measuring SYBR green fluorescence during temperature gradient, to monitor aptamer-protein complexes in the presence of different concentrations of either Notch2 or the non-specific control (CD 160 protein). Only upon the addition of increasing concentrations of Notch2, and not CD160, a dose-dependent change in CTL3-associated fluorescence was measured (FIG. 19). When looking at the total fluorescence graph, high fluorescence intensity can be seen at 25° C., however, when examining the derivative rate of change of […] (dF/dT) curves, the temperature-dependent intensity reached a maximum at 37° C.

[5] = target: T3, CD160 (UniProt O95971 O95971:25-159); test: thermofluorimetric analysis; specificity control; conditions: tags: Fc fusion, abcam
T3 sequence: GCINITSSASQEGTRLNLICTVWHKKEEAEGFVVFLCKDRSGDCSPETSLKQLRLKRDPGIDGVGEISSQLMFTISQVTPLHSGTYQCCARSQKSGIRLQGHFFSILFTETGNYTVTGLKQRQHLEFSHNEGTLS
Method: as §1, §2

[6] = target: T2, Notch2; test: thermofluorimetric analysis; conditions: tags: Fc fusion, R&D Systems
Method: as §1

T2 sequence (Q04721 26-1677, one chain of several): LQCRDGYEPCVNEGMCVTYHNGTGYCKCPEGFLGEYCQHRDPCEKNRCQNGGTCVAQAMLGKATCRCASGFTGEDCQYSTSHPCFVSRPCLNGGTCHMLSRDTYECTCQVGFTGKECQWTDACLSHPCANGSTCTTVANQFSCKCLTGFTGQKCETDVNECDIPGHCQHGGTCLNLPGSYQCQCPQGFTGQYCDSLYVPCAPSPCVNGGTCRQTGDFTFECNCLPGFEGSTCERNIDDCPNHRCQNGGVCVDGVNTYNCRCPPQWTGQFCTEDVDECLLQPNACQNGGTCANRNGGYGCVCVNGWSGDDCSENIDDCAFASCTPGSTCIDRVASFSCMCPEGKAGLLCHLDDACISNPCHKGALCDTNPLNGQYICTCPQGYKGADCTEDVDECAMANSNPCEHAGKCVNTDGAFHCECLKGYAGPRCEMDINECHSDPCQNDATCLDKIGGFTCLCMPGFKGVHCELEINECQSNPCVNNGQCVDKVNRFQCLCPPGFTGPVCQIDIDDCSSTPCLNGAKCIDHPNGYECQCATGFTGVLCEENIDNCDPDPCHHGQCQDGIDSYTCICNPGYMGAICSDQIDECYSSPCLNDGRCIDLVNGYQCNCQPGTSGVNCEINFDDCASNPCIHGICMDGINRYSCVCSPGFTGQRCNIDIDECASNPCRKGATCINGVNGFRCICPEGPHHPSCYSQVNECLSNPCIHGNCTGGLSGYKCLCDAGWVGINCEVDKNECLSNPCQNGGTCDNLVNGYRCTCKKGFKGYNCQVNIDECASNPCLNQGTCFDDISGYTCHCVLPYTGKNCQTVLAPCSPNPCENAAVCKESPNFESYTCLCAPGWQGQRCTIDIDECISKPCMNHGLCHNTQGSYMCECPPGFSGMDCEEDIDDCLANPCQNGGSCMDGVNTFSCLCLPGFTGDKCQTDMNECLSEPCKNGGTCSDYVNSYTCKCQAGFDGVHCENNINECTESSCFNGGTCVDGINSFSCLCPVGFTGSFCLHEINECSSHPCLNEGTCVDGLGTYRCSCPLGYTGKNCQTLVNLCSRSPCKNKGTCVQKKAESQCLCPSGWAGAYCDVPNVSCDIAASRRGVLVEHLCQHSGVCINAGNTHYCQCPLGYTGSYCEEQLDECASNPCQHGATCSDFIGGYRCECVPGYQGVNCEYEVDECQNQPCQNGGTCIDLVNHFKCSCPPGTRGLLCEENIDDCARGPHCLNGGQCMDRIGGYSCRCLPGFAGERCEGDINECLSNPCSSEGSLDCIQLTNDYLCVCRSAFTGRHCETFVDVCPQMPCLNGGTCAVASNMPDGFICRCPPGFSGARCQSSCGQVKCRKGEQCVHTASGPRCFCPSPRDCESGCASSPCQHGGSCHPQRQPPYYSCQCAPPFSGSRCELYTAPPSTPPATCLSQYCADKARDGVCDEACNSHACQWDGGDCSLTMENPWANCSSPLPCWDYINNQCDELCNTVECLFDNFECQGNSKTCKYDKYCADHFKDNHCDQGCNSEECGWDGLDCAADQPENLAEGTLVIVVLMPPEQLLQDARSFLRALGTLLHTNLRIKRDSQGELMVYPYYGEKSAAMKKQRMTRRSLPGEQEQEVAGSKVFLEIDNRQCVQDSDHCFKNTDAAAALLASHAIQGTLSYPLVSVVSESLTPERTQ
T1 sequence (P07766 23-126, one chain of several): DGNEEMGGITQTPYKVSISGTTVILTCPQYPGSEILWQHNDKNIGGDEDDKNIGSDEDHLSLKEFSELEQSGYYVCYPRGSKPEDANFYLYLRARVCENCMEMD
Sequence of CD3 epsilon (Jurkat T cells) (P07766 23-207, one chain of several): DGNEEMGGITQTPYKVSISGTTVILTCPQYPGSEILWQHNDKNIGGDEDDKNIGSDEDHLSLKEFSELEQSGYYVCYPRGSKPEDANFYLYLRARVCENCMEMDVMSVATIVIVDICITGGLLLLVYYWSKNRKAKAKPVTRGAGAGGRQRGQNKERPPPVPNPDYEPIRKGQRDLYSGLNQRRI

ATCGTATAAGGGCTGCTTAGGATTGCGATAATACGGTCAA (ssDNA) [CS6]
Kd [1]: 31 nM

B1: CpG1-CS6 (ssDNA)
DNA: TCGTCGTCGCGGTTCGCGTCCGTATCGTATAAGGGCTGCTTAGGATTGCGATAATACGGTCAA
modifications: PS on first five 5' nucleotides of CpG motif
EC50 [2]: 19.6 nM

B2: PolyT control (ssDNA)
DNA: TCGTCGTCGCGGTTCGCGTCCGTTTTTTTTTTTTTTTTTTTTTTTTTTTTTTTTTTTTTTTTTTTTTTTTTTT
binding result [3]: no binding

GCATACCTTTCGTATGCCTTTTTGACCCGTATTTTTGCCCTACCCTTCGG (ssDNA) [CTL3]
binding result [4]: binds
binding result [5]: no binding

GTTCTTATAATCGCCTCTGCGCTATGTTCTTGCTCGCCTTCCATATCGCT (ssDNA) [Scrambled-CTL3-A]
binding result [6]: no binding

TCTTTCGTTAGCGCTTCTCTCTTGCGATTCCGACCGCATATTCACGTCTT (ssDNA) [Scrambled-CTL3-B]
binding result [6]: no binding
